# Laboratory results from patent US20170145104A1.
# Columns and labels:
# [1] = target: human GITR, membrane bound (on activated human T cells and on 3A9-hGITR cells) (human) (UniProt Q9Y5U5); assay: FACS competition on PHA-activated human T cells, GITR-L pre-bound, competitor 28F3-hIgG1 at 0.5 ug/ml; inhibition partial
# [2] = target: human GITR, membrane bound (on activated human T cells and on 3A9-hGITR cells) (human) (UniProt Q9Y5U5); assay: FACS, PHA-activated human CD4+ and CD8+ T cells, PE anti-HA tag
# [3] = target: human GITR, membrane bound (on activated human T cells and on 3A9-hGITR cells) (human) (UniProt Q9Y5U5); assay: FACS: recombinant hGITR-L trimer titrated on PHA-activated human T cells, CD4 gate, PE anti-HA tag; direct binding curve; the sheet's table heads the row 'IC50', the text calls it EC50; unit from the axis
# [4] = target: human GITR, membrane bound (on activated human T cells and on 3A9-hGITR cells) (human) (UniProt Q9Y5U5); assay: FACS: recombinant hGITR-L trimer titrated on PHA-activated human T cells, CD8 gate, PE anti-HA tag; direct binding curve; the sheet's table heads the row 'IC50', the text calls it EC50; unit from the axis
# [5] = target: human GITR, membrane bound (on activated human T cells and on 3A9-hGITR cells) (human) (UniProt Q9Y5U5); assay: FACS competition on activated human CD4+ T cells: GITRL pre-bound and titrated, then 28F3.hIgG1 (m11) at a fixed 0.5 ug/mL, detected with anti-human IgG Fc-PE; partial block; unit from the axis
# [6] = target: human GITR, membrane bound (on activated human T cells and on 3A9-hGITR cells) (human) (UniProt Q9Y5U5); assay: FACS on activated T cells, GMFI (PE); EC50 table under the plot; unit from the axis; fit of a flat control curve, see non_binding
# human GITR, membrane bound (on activated human T cells and on 3A9-hGITR cells) (human), sequence (Q9Y5U5 26-241 limits assumed, form in doubt): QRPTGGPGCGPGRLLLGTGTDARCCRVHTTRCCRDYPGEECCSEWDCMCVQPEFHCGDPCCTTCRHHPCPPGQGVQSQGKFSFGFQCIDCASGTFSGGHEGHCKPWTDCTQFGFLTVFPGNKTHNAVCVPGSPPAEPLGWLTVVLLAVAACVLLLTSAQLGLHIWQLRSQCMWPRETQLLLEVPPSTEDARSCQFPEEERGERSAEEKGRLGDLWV
IC50 [1] [µg/mL],EC50 [2] [µg/mL],EC50 [3] [µg/mL],EC50 [4] [µg/mL],IC50 [5] [µg/mL],EC50 [6] [nM],Substance
0.0024,0.016,0.016,0.0163,0.00244,–,recombinant human GITR ligand trimer (R&D Systems 6987-GL)
–,–,–,–,–,6.72,unrelated hIgG2 (antibody)
–,–,–,–,–,132,unrelated hIgG1 (antibody)
